Patent US20030118612A1 (MAXYGEN, published 2003)

T1: human G-CSF receptor (human, UniProt Q99062 25-836)
T1 sequence (looked up): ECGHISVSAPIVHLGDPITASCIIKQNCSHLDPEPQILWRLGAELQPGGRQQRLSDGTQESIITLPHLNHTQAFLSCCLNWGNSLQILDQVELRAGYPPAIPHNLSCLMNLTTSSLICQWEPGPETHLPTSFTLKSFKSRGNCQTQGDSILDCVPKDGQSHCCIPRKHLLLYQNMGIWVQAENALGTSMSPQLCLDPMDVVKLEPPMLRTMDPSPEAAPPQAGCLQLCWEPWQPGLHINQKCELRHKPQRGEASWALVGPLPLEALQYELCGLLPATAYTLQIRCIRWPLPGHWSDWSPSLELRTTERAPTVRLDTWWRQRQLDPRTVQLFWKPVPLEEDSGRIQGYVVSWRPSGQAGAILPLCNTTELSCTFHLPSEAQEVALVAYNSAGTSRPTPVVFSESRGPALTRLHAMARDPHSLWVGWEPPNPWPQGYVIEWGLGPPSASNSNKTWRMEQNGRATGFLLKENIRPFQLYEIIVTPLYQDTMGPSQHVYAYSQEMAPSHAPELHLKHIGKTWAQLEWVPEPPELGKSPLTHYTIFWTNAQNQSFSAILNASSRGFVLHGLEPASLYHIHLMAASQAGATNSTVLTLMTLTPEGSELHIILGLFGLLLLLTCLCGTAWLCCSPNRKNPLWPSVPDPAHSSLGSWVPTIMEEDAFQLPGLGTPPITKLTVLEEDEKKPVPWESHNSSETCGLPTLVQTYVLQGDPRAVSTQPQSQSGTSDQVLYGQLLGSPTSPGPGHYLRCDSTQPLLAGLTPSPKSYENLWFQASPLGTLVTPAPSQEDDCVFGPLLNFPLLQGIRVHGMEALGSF


Target: T1, human G-CSF receptor
Experiment: cell-based or functional assay

Binder	EC50 (% of hG-CSF) conjugated to SPA-PEG 5000	EC50 (% of hG-CSF) non-conjugated
G-CSF variant 23Q conjugated to SPA-PEG 5000 (ligand, SPA-PEG 5000 conjugated to the available PEGylation sites) TPLGPASSLPQSFLLKCLEQVRQIQGDGAALQEKLCATYKLCHPEELVLLGHSLGIPWAPLSSCPSQALQLAGCLSQLHSGLFLYQGLLQALEGISPELGPTLDTLQLDVADFATTIWQQMEELGMAPALQPTQGAMPAFASAFQRRAGGVLVASHLQSFLEVSYRVLRHLAQP	0.1 % of hG-CSF	–
G-CSF variant K16/34/40R Q70K Q90K T133K conjugated to SPA-PEG 5000 (ligand, SPA-PEG 5000 conjugated to the available PEGylation sites) TPLGPASSLPQSFLLRCLEQVRKIQGDGAALQERLCATYRLCHPEELVLLGHSLGIPWAPLSSCPSQALKLAGCLSQLHSGLFLYQGLLKALEGISPELGPTLDTLQLDVADFATTIWQQMEELGMAPALQPKQGAMPAFASAFQRRAGGVLVASHLQSFLEVSYRVLRHLAQP	5 % of hG-CSF	–
G-CSF variant 23R, non-conjugated (ligand) TPLGPASSLPQSFLLKCLEQVRRIQGDGAALQEKLCATYKLCHPEELVLLGHSLGIPWAPLSSCPSQALQLAGCLSQLHSGLFLYQGLLQALEGISPELGPTLDTLQLDVADFATTIWQQMEELGMAPALQPTQGAMPAFASAFQRRAGGVLVASHLQSFLEVSYRVLRHLAQP	–	100 % of hG-CSF
G-CSF variant K16/34/40R Q90K T105K T133K, non-conjugated (ligand) TPLGPASSLPQSFLLRCLEQVRKIQGDGAALQERLCATYRLCHPEELVLLGHSLGIPWAPLSSCPSQALQLAGCLSQLHSGLFLYQGLLKALEGISPELGPTLDKLQLDVADFATTIWQQMEELGMAPALQPKQGAMPAFASAFQRRAGGVLVASHLQSFLEVSYRVLRHLAQP	–	10 % of hG-CSF
G-CSF variant K16/34/40R Q70K Q120K T133K conjugated to SPA-PEG 5000 (ligand, SPA-PEG 5000 conjugated to the available PEGylation sites) TPLGPASSLPQSFLLRCLEQVRKIQGDGAALQERLCATYRLCHPEELVLLGHSLGIPWAPLSSCPSQALKLAGCLSQLHSGLFLYQGLLQALEGISPELGPTLDTLQLDVADFATTIWQKMEELGMAPALQPKQGAMPAFASAFQRRAGGVLVASHLQSFLEVSYRVLRHLAQP	2 % of hG-CSF	–
G-CSF variant K16/34/40R Q70K Q120K S142K conjugated to SPA-PEG 5000 (ligand, SPA-PEG 5000 conjugated to the available PEGylation sites) TPLGPASSLPQSFLLRCLEQVRKIQGDGAALQERLCATYRLCHPEELVLLGHSLGIPWAPLSSCPSQALKLAGCLSQLHSGLFLYQGLLQALEGISPELGPTLDTLQLDVADFATTIWQKMEELGMAPALQPTQGAMPAFAKAFQRRAGGVLVASHLQSFLEVSYRVLRHLAQP	1 % of hG-CSF	–
G-CSF variant K16/34/40R Q90K Q120K T133K conjugated to SPA-PEG 5000 (ligand, SPA-PEG 5000 conjugated to the available PEGylation sites) TPLGPASSLPQSFLLRCLEQVRKIQGDGAALQERLCATYRLCHPEELVLLGHSLGIPWAPLSSCPSQALQLAGCLSQLHSGLFLYQGLLKALEGISPELGPTLDTLQLDVADFATTIWQKMEELGMAPALQPKQGAMPAFASAFQRRAGGVLVASHLQSFLEVSYRVLRHLAQP	2 % of hG-CSF	–
G-CSF variant K16/34/40R Q90K Q120K S142K, non-conjugated (ligand) TPLGPASSLPQSFLLRCLEQVRKIQGDGAALQERLCATYRLCHPEELVLLGHSLGIPWAPLSSCPSQALQLAGCLSQLHSGLFLYQGLLKALEGISPELGPTLDTLQLDVADFATTIWQKMEELGMAPALQPTQGAMPAFAKAFQRRAGGVLVASHLQSFLEVSYRVLRHLAQP	–	10 % of hG-CSF
G-CSF variant K16/34/40R Q90K T105K Q120K conjugated to SPA-PEG 5000 (ligand, SPA-PEG 5000 conjugated to the available PEGylation sites) TPLGPASSLPQSFLLRCLEQVRKIQGDGAALQERLCATYRLCHPEELVLLGHSLGIPWAPLSSCPSQALQLAGCLSQLHSGLFLYQGLLKALEGISPELGPTLDKLQLDVADFATTIWQKMEELGMAPALQPTQGAMPAFASAFQRRAGGVLVASHLQSFLEVSYRVLRHLAQP	2 % of hG-CSF	–
G-CSF variant K16/34/40R Q70K Q120K T133K, non-conjugated (ligand) TPLGPASSLPQSFLLRCLEQVRKIQGDGAALQERLCATYRLCHPEELVLLGHSLGIPWAPLSSCPSQALKLAGCLSQLHSGLFLYQGLLQALEGISPELGPTLDTLQLDVADFATTIWQKMEELGMAPALQPKQGAMPAFASAFQRRAGGVLVASHLQSFLEVSYRVLRHLAQP	–	15 % of hG-CSF
G-CSF variant K16/34/40R Q70K Q90K T133K, non-conjugated (ligand) TPLGPASSLPQSFLLRCLEQVRKIQGDGAALQERLCATYRLCHPEELVLLGHSLGIPWAPLSSCPSQALKLAGCLSQLHSGLFLYQGLLKALEGISPELGPTLDTLQLDVADFATTIWQQMEELGMAPALQPKQGAMPAFASAFQRRAGGVLVASHLQSFLEVSYRVLRHLAQP	–	15 % of hG-CSF
G-CSF variant K16/34/40R Q70K Q90K Q120K conjugated to SPA-PEG 5000 (ligand, SPA-PEG 5000 conjugated to the available PEGylation sites) TPLGPASSLPQSFLLRCLEQVRKIQGDGAALQERLCATYRLCHPEELVLLGHSLGIPWAPLSSCPSQALKLAGCLSQLHSGLFLYQGLLKALEGISPELGPTLDTLQLDVADFATTIWQKMEELGMAPALQPTQGAMPAFASAFQRRAGGVLVASHLQSFLEVSYRVLRHLAQP	12 % of hG-CSF	–
G-CSF variant K16/34/40R Q70K Q120K S142K, non-conjugated (ligand) TPLGPASSLPQSFLLRCLEQVRKIQGDGAALQERLCATYRLCHPEELVLLGHSLGIPWAPLSSCPSQALKLAGCLSQLHSGLFLYQGLLQALEGISPELGPTLDTLQLDVADFATTIWQKMEELGMAPALQPTQGAMPAFAKAFQRRAGGVLVASHLQSFLEVSYRVLRHLAQP	–	10 % of hG-CSF
G-CSF variant K16/34/40R Q90K T105K S159K conjugated to SPA-PEG 5000 (ligand, SPA-PEG 5000 conjugated to the available PEGylation sites) TPLGPASSLPQSFLLRCLEQVRKIQGDGAALQERLCATYRLCHPEELVLLGHSLGIPWAPLSSCPSQALQLAGCLSQLHSGLFLYQGLLKALEGISPELGPTLDKLQLDVADFATTIWQQMEELGMAPALQPTQGAMPAFASAFQRRAGGVLVASHLQKFLEVSYRVLRHLAQP	5 % of hG-CSF	–
G-CSF variant K16/34/40R Q70K T105K Q120K, non-conjugated (ligand) TPLGPASSLPQSFLLRCLEQVRKIQGDGAALQERLCATYRLCHPEELVLLGHSLGIPWAPLSSCPSQALKLAGCLSQLHSGLFLYQGLLQALEGISPELGPTLDKLQLDVADFATTIWQKMEELGMAPALQPTQGAMPAFASAFQRRAGGVLVASHLQSFLEVSYRVLRHLAQP	–	10 % of hG-CSF
G-CSF variant K16/34/40R Q90K Q120K T133K, non-conjugated (ligand) TPLGPASSLPQSFLLRCLEQVRKIQGDGAALQERLCATYRLCHPEELVLLGHSLGIPWAPLSSCPSQALQLAGCLSQLHSGLFLYQGLLKALEGISPELGPTLDTLQLDVADFATTIWQKMEELGMAPALQPKQGAMPAFASAFQRRAGGVLVASHLQSFLEVSYRVLRHLAQP	–	15 % of hG-CSF
G-CSF variant K16/34/40R Q90K T105K T133K conjugated to SPA-PEG 5000 (ligand, SPA-PEG 5000 conjugated to the available PEGylation sites) TPLGPASSLPQSFLLRCLEQVRKIQGDGAALQERLCATYRLCHPEELVLLGHSLGIPWAPLSSCPSQALQLAGCLSQLHSGLFLYQGLLKALEGISPELGPTLDKLQLDVADFATTIWQQMEELGMAPALQPKQGAMPAFASAFQRRAGGVLVASHLQSFLEVSYRVLRHLAQP	2 % of hG-CSF	–
G-CSF variant K16/34/40R Q90K Q120K S142K conjugated to SPA-PEG 5000 (ligand, SPA-PEG 5000 conjugated to the available PEGylation sites) TPLGPASSLPQSFLLRCLEQVRKIQGDGAALQERLCATYRLCHPEELVLLGHSLGIPWAPLSSCPSQALQLAGCLSQLHSGLFLYQGLLKALEGISPELGPTLDTLQLDVADFATTIWQKMEELGMAPALQPTQGAMPAFAKAFQRRAGGVLVASHLQSFLEVSYRVLRHLAQP	1 % of hG-CSF	–
G-CSF variant K16/34/40R Q90K T105K S159K, non-conjugated (ligand) TPLGPASSLPQSFLLRCLEQVRKIQGDGAALQERLCATYRLCHPEELVLLGHSLGIPWAPLSSCPSQALQLAGCLSQLHSGLFLYQGLLKALEGISPELGPTLDKLQLDVADFATTIWQQMEELGMAPALQPTQGAMPAFASAFQRRAGGVLVASHLQKFLEVSYRVLRHLAQP	–	55 % of hG-CSF
G-CSF variant K16/34/40R Q70K T105K Q120K conjugated to SPA-PEG 5000 (ligand, SPA-PEG 5000 conjugated to the available PEGylation sites) TPLGPASSLPQSFLLRCLEQVRKIQGDGAALQERLCATYRLCHPEELVLLGHSLGIPWAPLSSCPSQALKLAGCLSQLHSGLFLYQGLLQALEGISPELGPTLDKLQLDVADFATTIWQKMEELGMAPALQPTQGAMPAFASAFQRRAGGVLVASHLQSFLEVSYRVLRHLAQP	2 % of hG-CSF	–
G-CSF variant 23R conjugated to SPA-PEG 5000 (ligand, SPA-PEG 5000 conjugated to the available PEGylation sites) TPLGPASSLPQSFLLKCLEQVRRIQGDGAALQEKLCATYKLCHPEELVLLGHSLGIPWAPLSSCPSQALQLAGCLSQLHSGLFLYQGLLQALEGISPELGPTLDTLQLDVADFATTIWQQMEELGMAPALQPTQGAMPAFASAFQRRAGGVLVASHLQSFLEVSYRVLRHLAQP	0.1 % of hG-CSF	–
G-CSF variant K16/34/40R Q90K T105K Q120K, non-conjugated (ligand) TPLGPASSLPQSFLLRCLEQVRKIQGDGAALQERLCATYRLCHPEELVLLGHSLGIPWAPLSSCPSQALQLAGCLSQLHSGLFLYQGLLKALEGISPELGPTLDKLQLDVADFATTIWQKMEELGMAPALQPTQGAMPAFASAFQRRAGGVLVASHLQSFLEVSYRVLRHLAQP	–	10 % of hG-CSF
G-CSF variant K16/34/40R T105K Q120K T133K, non-conjugated (ligand) TPLGPASSLPQSFLLRCLEQVRKIQGDGAALQERLCATYRLCHPEELVLLGHSLGIPWAPLSSCPSQALQLAGCLSQLHSGLFLYQGLLQALEGISPELGPTLDKLQLDVADFATTIWQKMEELGMAPALQPKQGAMPAFASAFQRRAGGVLVASHLQSFLEVSYRVLRHLAQP	–	10 % of hG-CSF
